Measurements as given in article PMC3946335 (Small (Weinheim an der Bergstrasse, Germany), 2013).

Tests used:
[1] = test system: human dermal fibroblasts; test: Caspase-3/7 assay; type: cell-based; settings: MMP-14 negative fibroblasts
[2] = Number of ICT molecules per nanoparticle, from FITC absorption and emission; type: physicochemical; settings: from attached fluorescein absorption at 492 nm and known TNP concentration
[3] = Dynamic Light Scattering, nanoparticle size; type: physicochemical; settings: nanoparticle size by DLS; PBS buffer, filtered 0.2 μm, diluted to 0.6 mM iron
[4] = test system: normal organs (liver, spleen, kidney, brain, bone marrow and heart); test: Toxicity in normal organs; type: in vivo, mouse; settings: histology and caspase-3 activity
[5] = test system: PyMT tumors; test: Antitumor activity, daily tumor size; type: in vivo, mouse; settings: calipers, daily for 7 days after single IV injection; n=6 mice
[6] = Laser Doppler Electrophoresis, zeta potential; type: physicochemical
[7] = test system: 4T1 cells; test: Caspase-3/7 assay; type: cell-based, murine; settings: low MMP-14
[8] = Iron oxide core size by TEM; type: physicochemical; settings: after functionalization
[9] = test system: MMTV-PyMT tumors; test: Tumor histology; type: in vivo, mouse
[10] = test system: MMTV-PyMT tumors; test: In vivo T2-weighted MR imaging of tumor accumulation; design: species or system mouse; settings: single IV injection: ferumoxytol 0.5 mmol Fe/kg, CLIO-ICT 0.75 mmol Fe/kg, ICT 1.0 μmol/kg; up to 24 h; n=6
[11] = r1 and r2 relaxivities by NMR; type: physicochemical; settings: relaxivity; 1 – 60 mM iron; Varian Inova 300MHz (7 Tesla) NMR
[12] = test system: MMTV-PyMT tumor cells; test: Caspase-3/7 assay; type: cell-based, murine; settings: DEVD-AMC fluorescence, triplicate samples, printed as x:1
[13] = biological target: recombinant MMP-14 (Homo sapiens, UniProt P50281); type: biochemical; settings: ICT 10 mM, recombinant MMP-14 20 μg/mL, PBS buffer, 37 °C, identical conditions (2 hours); HPLC

FITC-βAla-Cys-Arg-Ser-Cit-Gly-HPhe-Tyr-Leu-Tyr [CLIO-ICT]
cytotoxic effects (caspase assay) [1]: did not show any significant cytotoxic effects | # of ICT (ICT molecules per iron oxide nanoparticle) [2]: 4.7±0.4 | D (DLS) [3]: 21±3 nm | toxicity or cell death in normal tissues [4]: no toxicity or cell death | change in tumor size [5]: overall decrease in tumor size | Z (zeta potential) ([6]; Laser Doppler Electrophoresis, PBS buffer, filtered 0.2 μm, 0.6 mM iron): +21±7 meV | charge of the nanoparticle ([6]; sign of zeta potential, laser Doppler electrophoresis): positive | response to treatment (caspase assay) [7]: not responsive | iron oxide core size [8]: 6.5±0.7 nm | iron deposits in tumors (Prussian Blue) ([9]; 48 hours after intravenous administration): Iron deposits were noted | tumor necrosis (pathologic evaluation, H&E) ([9]; MMTV-PyMT tumors): progressive increase in the severity of tumor necrosis | Cy3-labeled cleaved Caspase-3 immunofluorescent staining of tumor cells ([9]; MMTV-PyMT tumors, 48 hours after administration): significant labeling of tumor cells | tumor enhancement on postcontrast T2-weighted MR images [10]: negative (dark) enhancement | r1 [11]: 38.9 mM⁻¹ s⁻¹ | caspase expression ratio relative to the PBS control [12]: 2.883

FITC-βAla-Cys-Arg-Ser-Cit-Gly-HPhe-Tyr-Leu-Tyr [ICT]
prodrug cleaved by MMP-14 [13]: 89% | tumor enhancement on postcontrast T2-weighted MR images [10]: did not show any significant MR signal enhancement | caspase expression ratio relative to the PBS control [12]: 2.994
